These are literature values, as cited in doi:10.64898/2025.12.23.696170.

For orientation: Ki means the equilibrium dissociation constant of an inhibitor or competing ligand from its target.

In data set [1] the target is ATR1 (Homo sapiens) (UniProt P30556).
Data set [2] deals with ATR2 (Homo sapiens) (UniProt P50052).
UniProt P50052, sequence (P50052 whole entry): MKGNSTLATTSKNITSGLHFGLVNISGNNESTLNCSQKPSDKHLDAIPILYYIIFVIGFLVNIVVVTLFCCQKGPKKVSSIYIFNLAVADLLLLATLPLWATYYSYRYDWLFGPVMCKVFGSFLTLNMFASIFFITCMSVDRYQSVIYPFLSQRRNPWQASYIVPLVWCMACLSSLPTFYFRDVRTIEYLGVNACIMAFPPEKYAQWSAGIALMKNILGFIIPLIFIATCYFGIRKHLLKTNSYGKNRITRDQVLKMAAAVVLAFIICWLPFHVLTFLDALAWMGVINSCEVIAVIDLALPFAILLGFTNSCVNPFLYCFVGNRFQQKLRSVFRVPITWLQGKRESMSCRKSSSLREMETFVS

UniProt P30556, sequence (P30556 whole entry): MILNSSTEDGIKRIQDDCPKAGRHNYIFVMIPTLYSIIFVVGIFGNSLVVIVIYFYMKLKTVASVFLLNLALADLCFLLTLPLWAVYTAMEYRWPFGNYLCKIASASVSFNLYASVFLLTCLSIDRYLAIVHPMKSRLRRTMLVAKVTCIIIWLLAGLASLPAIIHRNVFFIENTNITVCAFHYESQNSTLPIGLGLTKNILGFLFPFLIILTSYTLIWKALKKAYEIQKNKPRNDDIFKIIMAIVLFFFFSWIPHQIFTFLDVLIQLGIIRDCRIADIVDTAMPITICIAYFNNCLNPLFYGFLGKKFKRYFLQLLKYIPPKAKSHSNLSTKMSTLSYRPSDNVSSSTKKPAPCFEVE

In the case of Angiotensin II (from UniProt P01019), the results for the Ki in data set [1] and in data set [2] were 200 pM and 300 pM, respectively.
